{"source": "patent US20020137019A1", "about": "(NEW YORK UNIVERSITY, published 2002)", "molecules": {"B1": {"name": "B42-AR153-336 (receptor, rat, UniProt P15207 153-336, looked up, not shown: large carriers)", "chain": "LSSCSADIKDILSEAGTMQLLQQQQQQQQQQQQQQQQQQQQQQEVISEGSSSVRAREATGAPSSSKDSYLGGNSTISDSAKELCKAVSVSMGLGVEALEHLSPGEQLRGDCMYASLLGGPPAVRPTPCAPLAECKGLSLDEGPGKGTEETAEYSSFKGGYAKGLEGESLGCSGSSEAGSSGTLE"}, "B2": {"name": "rat AR ligand binding domain (AR579-901) in pJG4-5 (receptor, UniProt P15207 579-901, looked up, not shown: large carriers)", "chain": "ASRNDCTIDKFRRKNCPSCRLRKCYEAGMTLGARKLKKLGNLKLQEEGENSSAGSPTEDPSQKMTVSHIEGYECQPIFLNVLEAIEPGVVCAGHDNNQPDSFAALLSSLNELGERQLVHVVKWAKALPGFRNLHVDDQMAVIQYSWMGLMVFAMGWRSFTNVNSRMLYFAPDLVFNEYRMHKSRMYSQCVRMRHLSQEFGWLQITPQEFLCMKALLLFSIIPVDGLKNQKFFDELRMNYIKELDRIIACKRKNPTSCSRRFYQLTKLLDSVQPIARELHQFTFDLLIKSHMVSVDFPEMMAEIISVQVPKILSGKVKPIYFHT", "notes": "range 579-901"}, "B3": {"name": "B42-AR18-156 (receptor, rat, UniProt P15207 18-156, looked up, not shown: large carriers)", "chain": "TYRGAFQNLFQSVREAIQNPGPRHPEAASIAPPGACLQQRQETSPRRRRRQQHPEDGSPQAHIRGTTGYLALEEEQQPSQQQSASEGHPESGCLPEPGAATAPGKGLPQQPPAPPDQDDSAAPSTLSLLGPTFPGLSSC"}, "B4": {"name": "LexA-ART-27 1-45/127-157 (other, UniProt P0A7C2 1-202, looked up)", "chain": "MKALTARQQEVFDLIRDHISQTGMPPTRAEIAQRLGFRSPNAAEEHLKALARKGVIEIVSGASRGIRLLQEEEEGLPLVGRVAAGEPLLAQQHIEGHYQVDPSLFKPNADFLLRVSGMSMKDIGIMDGDLLAVHKTQDVRNGQVVVARIDDEVTVKRLKKQGNKVELLPENSEFKPIVVDLRQQSFTIEGLAVGVIRNGDWLMATPPKRRAVEATGEKVLRYETFISDVLQRDLRKVLDHRDKVYEQDSMNIKAHIHMLLEGLRELQGLQNFPEKPHH", "notes": "The two fragments were joined through a BamHI site"}, "B5": {"name": "LexA-ART-27 1-67 (other, UniProt P0A7C2 1-202, looked up)", "chain": "MKALTARQQEVFDLIRDHISQTGMPPTRAEIAQRLGFRSPNAAEEHLKALARKGVIEIVSGASRGIRLLQEEEEGLPLVGRVAAGEPLLAQQHIEGHYQVDPSLFKPNADFLLRVSGMSMKDIGIMDGDLLAVHKTQDVRNGQVVVARIDDEVTVKRLKKQGNKVELLPENSEFKPIVVDLRQQSFTIEGLAVGVIRNGDWLMATPPKRRAVEATGEKVLRYETFISDVLQRDLRKVLDHRDKVYEQLAKYLQLRNVIERLQEAKHSEL", "notes": "also called ART-27 derivative 1-67"}, "B6": {"name": "LexA-ART-27 46-157 (other, UniProt P0A7C2 1-202, looked up)", "chain": "MKALTARQQEVFDLIRDHISQTGMPPTRAEIAQRLGFRSPNAAEEHLKALARKGVIEIVSGASRGIRLLQEEEEGLPLVGRVAAGEPLLAQQHIEGHYQVDPSLFKPNADFLLRVSGMSMKDIGIMDGDLLAVHKTQDVRNGQVVVARIDDEVTVKRLKKQGNKVELLPENSEFKPIVVDLRQQSFTIEGLAVGVIRNGDWLLAKYLQLRNVIERLQEAKHSELYMQVDLGCNFFVDTVVPDTSRIYVALGYGFFLELTLAEALKFIDRKSSLLTELSNSLTKDSMNIKAHIHMLLEGLRELQGLQNFPEKPHH"}, "B7": {"name": "ART-37 (LexA DNA binding domain fusion) (other)", "chain": "MKALTARQQEVFDLIRDHISQTGMPPTRAEIAQRLGFRSPNAAEEHLKALARKGVIEIVSGASRGIRLLQEEEEGLPLVGRVAAGEPLLAQQHIEGHYQVDPSLFKPNADFLLRVSGMSMKDIGIMDGDLLAVHKTQDVRNGQVVVARIDDEVTVKRLKKQGNKVELLPENSEFKPIVVDLRQQSFTIEGLAVGVIRNGDWLEFGTRARFTRGKSALLERALARPRTEVSLSAFALLSPSWYSTARAVFSVAELQSRLAALGRQVGARVLDALVAREKGARRETKVLGALLFVKGAVWKALFGKEADKLEQANDDARTFYIIEREPLINTYISVPKENSTLNCASFTAGIVEAVLTHSGFPAKVTAHWHKGTTLMIKFEEAVIARDRLEGR", "notes": "Clone from an LNCaP prostate cancer cell cDNA library"}, "B8": {"name": "LexA-ART-27 68-157 (other, UniProt P0A7C2 1-202, looked up)", "chain": "MKALTARQQEVFDLIRDHISQTGMPPTRAEIAQRLGFRSPNAAEEHLKALARKGVIEIVSGASRGIRLLQEEEEGLPLVGRVAAGEPLLAQQHIEGHYQVDPSLFKPNADFLLRVSGMSMKDIGIMDGDLLAVHKTQDVRNGQVVVARIDDEVTVKRLKKQGNKVELLPENSEFKPIVVDLRQQSFTIEGLAVGVIRNGDWLYMQVDLGCNFFVDTVVPDTSRIYVALGYGFFLELTLAEALKFIDRKSSLLTELSNSLTKDSMNIKAHIHMLLEGLRELQGLQNFPEKPHH"}, "B9": {"name": "LexA-ART-27 127-157 (other, UniProt P0A7C2 1-202, looked up)", "chain": "MKALTARQQEVFDLIRDHISQTGMPPTRAEIAQRLGFRSPNAAEEHLKALARKGVIEIVSGASRGIRLLQEEEEGLPLVGRVAAGEPLLAQQHIEGHYQVDPSLFKPNADFLLRVSGMSMKDIGIMDGDLLAVHKTQDVRNGQVVVARIDDEVTVKRLKKQGNKVELLPENSEFKPIVVDLRQQSFTIEGLAVGVIRNGDWLDSMNIKAHIHMLLEGLRELQGLQNFPEKPHH"}, "B10": {"name": "LexA-ART-27 1-45 (other, UniProt P0A7C2 1-202, looked up)", "chain": "MKALTARQQEVFDLIRDHISQTGMPPTRAEIAQRLGFRSPNAAEEHLKALARKGVIEIVSGASRGIRLLQEEEEGLPLVGRVAAGEPLLAQQHIEGHYQVDPSLFKPNADFLLRVSGMSMKDIGIMDGDLLAVHKTQDVRNGQVVVARIDDEVTVKRLKKQGNKVELLPENSEFKPIVVDLRQQSFTIEGLAVGVIRNGDWLMATPPKRRAVEATGEKVLRYETFISDVLQRDLRKVLDHRDKVYEQ", "notes": "also called ART-27 derivative 1-45"}}, "key": {"[1]": {"target": "B42-AR18-500 (rat androgen receptor N-terminus, residues 18-500, fused to the B42 activation domain) (rat) (UniProt P15207)", "experiment": "cell-based or functional assay"}, "[2]": {"target": "T1, ART-27 (full length, 1-157; LexA DNA binding domain fusion) (human, UniProt P0A7C2 1-202; Q9UBK9 1-157)", "T1 construct": "also called LexA-ART-27; pEG202:ART-27", "experiment": "modified yeast interaction-trap assay, liquid beta-galactosidase"}, "[3]": {"target": "T2, ART-5 (LexA DNA binding domain fusion) (UniProt P0A7C2 1-202, limits assumed)", "T2 construct": "Clone from an LNCaP prostate cancer cell cDNA library", "T2 sequence": "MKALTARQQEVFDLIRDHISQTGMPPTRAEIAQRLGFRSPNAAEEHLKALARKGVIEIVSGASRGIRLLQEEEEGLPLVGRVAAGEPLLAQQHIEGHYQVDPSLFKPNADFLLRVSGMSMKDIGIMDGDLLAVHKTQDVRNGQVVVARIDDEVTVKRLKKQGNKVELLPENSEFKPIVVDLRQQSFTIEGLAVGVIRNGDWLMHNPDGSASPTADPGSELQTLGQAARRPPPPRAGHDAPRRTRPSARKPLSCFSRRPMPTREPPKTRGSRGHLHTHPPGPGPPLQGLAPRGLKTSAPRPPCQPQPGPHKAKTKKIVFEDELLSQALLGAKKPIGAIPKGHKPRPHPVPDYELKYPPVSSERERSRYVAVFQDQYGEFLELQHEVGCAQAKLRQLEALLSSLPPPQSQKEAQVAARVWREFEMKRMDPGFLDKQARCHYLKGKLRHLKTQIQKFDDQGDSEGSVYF", "experiment": "modified yeast two-hybrid, plate beta-galactosidase assay"}, "[4]": {"target": "B7", "experiment": "modified yeast two-hybrid, plate beta-galactosidase assay"}, "[5]": {"target": "T1, ART-27 (full length, 1-157; LexA DNA …)", "experiment": "modified yeast two-hybrid, plate beta-galactosidase assay"}, "[6]": {"target": "T1, ART-27 (full length, 1-157; LexA DNA …)", "experiment": "modified yeast two-hybrid, liquid beta-galactosidase assay"}, "[7]": {"target": "T3, B42-AR18-500 (rat androgen receptor N-terminus, residues 18-500, fused to the B42 activation domain) (rat, UniProt P15207 18-500)", "T3 construct": "range 18-500; Yeast two-hybrid bait, galactose-inducible; also called AR18-500-AD; pJG4-5:AR18-500", "T3 sequence (looked up)": "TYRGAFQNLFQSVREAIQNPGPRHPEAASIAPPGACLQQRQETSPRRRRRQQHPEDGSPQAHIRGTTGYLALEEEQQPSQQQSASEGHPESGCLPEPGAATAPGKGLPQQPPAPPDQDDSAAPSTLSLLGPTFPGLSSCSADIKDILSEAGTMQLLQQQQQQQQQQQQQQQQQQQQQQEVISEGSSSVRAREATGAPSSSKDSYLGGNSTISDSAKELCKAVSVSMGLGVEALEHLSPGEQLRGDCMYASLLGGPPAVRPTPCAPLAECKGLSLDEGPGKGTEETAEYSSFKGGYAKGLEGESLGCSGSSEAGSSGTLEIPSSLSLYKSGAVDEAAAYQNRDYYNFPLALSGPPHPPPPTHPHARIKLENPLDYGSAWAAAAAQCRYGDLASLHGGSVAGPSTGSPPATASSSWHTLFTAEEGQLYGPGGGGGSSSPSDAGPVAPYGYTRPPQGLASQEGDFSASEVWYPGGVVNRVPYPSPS", "experiment": "modified yeast two-hybrid, plate beta-galactosidase assay"}, "[8]": {"target": "T3, B42-AR18-500 (rat androgen receptor …)", "experiment": "modified yeast two-hybrid screen of a LexA-LNCaP cDNA library"}}}
{"molecule": "LexA vector alone (from UniProt P0A7C2 1-202)", "values": [{"measurement": "quantitative liquid beta-galactosidase assay (modified yeast two-hybrid) (unit of activity)", "setting": "[1]", "result": 1}]}
{"molecule": "B1", "values": [{"measurement": "binding result", "setting": "[2]", "result": "binds"}]}
{"molecule": "B2", "values": [{"measurement": "binding result", "setting": "[3]", "result": "no binding"}, {"measurement": "binding result", "setting": "[4]", "result": "no binding"}, {"measurement": "binding result", "setting": "[5]", "result": "no binding"}]}
{"molecule": "B3", "values": [{"measurement": "binding result", "setting": "[6]", "result": "no binding"}]}
{"molecule": "B4", "values": [{"measurement": "binding result", "setting": "[7]", "result": "no binding"}]}
{"molecule": "B5", "values": [{"measurement": "binding result", "setting": "[7]", "result": "no binding"}]}
{"molecule": "B6", "values": [{"measurement": "binding result", "setting": "[7]", "result": "no binding"}]}
{"molecule": "B7", "values": [{"measurement": "binding result", "setting": "[8]", "result": "binds"}]}
{"molecule": "B8", "values": [{"measurement": "binding result", "setting": "[7]", "result": "no binding"}]}
{"molecule": "B9", "values": [{"measurement": "binding result", "setting": "[7]", "result": "no binding"}]}
{"molecule": "B10", "values": [{"measurement": "binding result", "setting": "[7]", "result": "no binding"}]}
